Assay [1] concerns the target US28 wild type, G protein-coupled receptor of human cytomegalovirus strain VHL/E (human cytomegalovirus strain VHL/E). In words: competition of unlabeled CCL5 against 125I-CCL5 on US28.
Assay [2] shares this target. In words: cell-based or functional assay.
For assay [3] the target is unchanged. In words: displacement of 125I-CCL5 from US28-expressing HEK293T membranes by unlabeled CCL5. On the technique in general: Displacement assays read how much labelled ligand stays bound in the presence of the test substance.

Sequence of human chemokine CCL5 (P13501 24-91 limits assumed): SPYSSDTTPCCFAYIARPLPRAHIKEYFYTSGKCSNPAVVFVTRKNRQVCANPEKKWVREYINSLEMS

“human chemokine CCL5 (from UniProt P13501 24-91) (ligand)”: the IC50 (read off the curve) in assay [1] is 1 nM; in assay [3] it was 3 nM. In assay [2], this substance came in with a CCL5-induced accumulation of inositol phosphates (EC80) of 31.6 nM.
